From US20090029924A1

Target: Recombinant human furin (human) (UniProt P09958)
Experiment: furin, Pyr-RTKR-AMC cleavage

Chain of Recombinant human furin (human) (P09958 108-714 limits assumed): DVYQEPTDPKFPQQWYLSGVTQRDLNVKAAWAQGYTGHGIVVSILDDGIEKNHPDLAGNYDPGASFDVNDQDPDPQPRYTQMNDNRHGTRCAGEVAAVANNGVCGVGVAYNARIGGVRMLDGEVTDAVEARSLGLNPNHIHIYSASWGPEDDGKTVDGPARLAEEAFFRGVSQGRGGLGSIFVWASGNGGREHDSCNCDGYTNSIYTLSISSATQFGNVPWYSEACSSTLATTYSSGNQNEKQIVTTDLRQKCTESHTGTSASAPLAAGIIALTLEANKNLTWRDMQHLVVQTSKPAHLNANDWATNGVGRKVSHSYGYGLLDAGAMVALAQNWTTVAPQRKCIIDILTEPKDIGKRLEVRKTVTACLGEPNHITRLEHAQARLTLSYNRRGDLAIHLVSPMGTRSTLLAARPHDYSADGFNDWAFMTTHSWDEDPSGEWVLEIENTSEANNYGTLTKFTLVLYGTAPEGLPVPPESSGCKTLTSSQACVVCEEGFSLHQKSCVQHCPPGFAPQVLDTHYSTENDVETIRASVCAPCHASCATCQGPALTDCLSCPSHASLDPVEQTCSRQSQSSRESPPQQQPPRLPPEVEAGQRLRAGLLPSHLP

Row | Substance | Ki
1 | TPQR1RRRKKRG (peptide) | > 0.1 µM
2 | TPQR2RRRKKRG (peptide) | > 0.1 µM
3 | TPQR3RRRKKRG (peptide) | > 0.1 µM
4 | TPQR4RRRKKRG (peptide) | > 0.1 µM
5 | TPQR5RRRKKRG (peptide) | > 0.1 µM
6 | TPQR6RRRKKRG (peptide) | > 0.1 µM
7 | TPQR7RRRKKRG (peptide) | > 0.1 µM
8 | TPQR8RRRKKRG (peptide) | > 0.1 µM
9 | TPQReRRRKKRG (peptide) | > 0.1 µM
10 | TPQRkRRRKKRG (peptide) | > 0.1 µM
11 | TPQRrRRRKKRG (peptide) | > 0.1 µM
